In data set [1] the target is T1, PARP-1 (Homo sapiens, UniProt P09874 1-1014). The data set is described as follows: fluorescence anisotropy; 140 mM KCl, 8 mM MgCl2; 25 mM HEPES pH 8.0, 140 mM KCl, 8 mM MgCl2, 50 ug/ml BSA, 0.02 mM TCEP, 4% glycerol, 11.4 mM bME, 5 nM labeled DNA, 30 min room temperature, read at 25 C. The conditions noted are these: protein: recombinant, tags: His-tag (pET28a). (In general: In fluorescence polarisation assays a small probe gives low polarisation when free and higher when bound to something large.)
T1 sequence (P09874 whole entry): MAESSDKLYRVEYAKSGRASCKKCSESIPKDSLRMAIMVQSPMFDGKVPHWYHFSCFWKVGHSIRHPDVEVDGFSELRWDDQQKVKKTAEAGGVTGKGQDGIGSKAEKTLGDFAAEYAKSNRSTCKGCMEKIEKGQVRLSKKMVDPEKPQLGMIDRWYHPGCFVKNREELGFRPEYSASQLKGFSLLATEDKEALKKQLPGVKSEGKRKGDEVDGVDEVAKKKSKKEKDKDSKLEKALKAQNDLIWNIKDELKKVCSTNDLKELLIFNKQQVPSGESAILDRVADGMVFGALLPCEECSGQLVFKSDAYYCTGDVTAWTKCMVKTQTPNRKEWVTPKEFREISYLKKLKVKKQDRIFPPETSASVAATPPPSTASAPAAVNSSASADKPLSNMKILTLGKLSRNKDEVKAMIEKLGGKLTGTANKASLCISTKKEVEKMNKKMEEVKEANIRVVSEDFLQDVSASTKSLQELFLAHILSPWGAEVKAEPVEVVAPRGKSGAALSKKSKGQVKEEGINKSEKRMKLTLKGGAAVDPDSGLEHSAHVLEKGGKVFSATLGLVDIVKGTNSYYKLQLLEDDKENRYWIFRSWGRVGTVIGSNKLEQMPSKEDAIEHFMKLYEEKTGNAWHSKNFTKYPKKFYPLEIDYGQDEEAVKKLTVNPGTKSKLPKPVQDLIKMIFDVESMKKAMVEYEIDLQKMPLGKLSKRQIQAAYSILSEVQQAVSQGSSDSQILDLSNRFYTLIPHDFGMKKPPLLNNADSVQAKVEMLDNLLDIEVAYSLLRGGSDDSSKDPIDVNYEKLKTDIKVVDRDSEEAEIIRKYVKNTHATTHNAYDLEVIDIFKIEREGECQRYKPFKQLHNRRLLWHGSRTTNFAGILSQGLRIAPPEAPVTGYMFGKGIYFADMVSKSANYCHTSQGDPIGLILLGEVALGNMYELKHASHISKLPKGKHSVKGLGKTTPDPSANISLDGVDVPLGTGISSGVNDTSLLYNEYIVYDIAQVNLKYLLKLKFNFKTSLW

Data set [2] concerns the target T1, PARP-1. The experiment in a line: fluorescence anisotropy; 140 mM KCl, 8 mM MgCl2; ~14-fold tighter than c-KIT, similar to 18-bp dsDNA; 25 mM HEPES pH 8.0, 140 mM KCl, 8 mM MgCl2, 50 ug/ml BSA, 0.02 mM TCEP, 4% glycerol, 11.4 mM bME, 5 nM labeled DNA, 30 min room temperature, read at 25 C. The conditions noted are these: protein: recombinant; tags: His-tag (pET28a); parallel G4.

In data set [3] the target is T1, PARP-1. The data set is described as follows: fluorescence anisotropy; 140 mM KCl, 8 mM MgCl2; tighter than c-KIT, Kd in figure only; 25 mM HEPES pH 8.0, 140 mM KCl, 8 mM MgCl2, 50 ug/ml BSA, 0.02 mM TCEP, 4% glycerol, 11.4 mM bME, 5 nM labeled DNA, 30 min room temperature, read at 25 C. The conditions noted are these: protein: recombinant; tags: His-tag (pET28a); parallel G4.

Data on six molecules can be found in publication PMC7797039, “G-Quadruplex loops regulate PARP-1 enzymatic activation”.

Consider CCCGGGCGGGCGCGAGGGAGGGGAGG (structured_DNA) [c-KIT G4DNA], for which, in data set [1] (parallel G4, stem-loop also possible), the Kd – broadly, the concentration at which binding is half-saturated – came to 430 ± 60 nM.
On to GGGCGGGCGGGAGGGGAGG (structured_DNA) [c-KIT 5':L2], for which the Kd in data set [2] was around 30 nM.

B1: 18-bp dsDNA (dsDNA)
DNA 1: GGGTTGCGGCCGCTTGGG
DNA 2: CCCAAGCGGCCGCAACCC
With B1, in data set [1] (blunt), the Kd was 30 ± 10 nM.
As for CCCGGGCGGGCGGGAGGGGAGG (structured_DNA) [c-KIT L2], the binding result in data set [3] was “binds”.
In the case of TGGGTGGGTAGGGTGGGT (structured_DNA) [c-MYC G4DNA (Pu18 T14T23)], the Kd in data set [1] (parallel G4) came out at 400 ± 50 nM.
The same measure, in the same setting: for CGGGCGGGCGCGAGGGAGGGGAGG (structured_DNA) [c-KIT 5'] the value was 230 ± 9 nM.
